Experimental data published in the RNAGym collection of RNA variant scans (doi:10.1073/pnas.2313332121).

B1: TPR t1 (parent)
chain: GACCAAUCUGCCCUCAGAGCUCGAGAACAUCUUCGGAUGCAGAGGAGGCAGGCUUCGGUGGCGCGAUAGCGCCAACGUCCUCAACCUCCAAUGCAUCCCACCACAUGAUGAUGCCUGAAGAGCCUUGGUUUUUUG

Variants of: B1
Test: polymerase ribozyme fitness, log enrichment relative to wild type (log ratio); higher = more active; in vitro selection for triplet polymerase activity
Summary of the method: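 Each subunit of a heterodimeric triplet polymerase ribozyme was represented by a PCR-built, transcribed mutant library that underwent triplicate single-round in vitro selection with frozen incubation at −7 °C. Extended constructs were recovered by gel excision, streptavidin-bead capture and RT-PCR, and Illumina sequencing of input and output libraries kept genotypes with ≥10 input reads and ≥1 read per output. Fitness is the logarithm of genotype enrichment relative to wild-type enrichment, from inverse-variance-weighted replicate averages, with a logarithm base of 2.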

| Variant | polymerase ribozyme fitness (log ratio) |
| --- | --- |
| U33A C89G A103U U112A G113U | -5.8 |
| C31U G39C G44U C85G G110C | -6.47 |
| U32G G48U C72G C102U G120C | -7.94 |
| U32C U78A A84G G122A | -2 |
| U30C C73U | -2.48 |
| U30C C115A | -2.84 |
| C31G C34U U109G G110C | -6.14 |
| C31G C73A | -6.15 |
| C31U C89U | -5.93 |
| C31U C89G | -5.1 |
| U33A U81A C102G G110C C115G | -6.08 |
| U32G A43U G69U A100C U109C G117U U130A | -7.2 |
| U33A C49U C73U | -5.84 |
| A29U U54A G71C | -1.61 |
| C31A G61A C94U C97U C123U | -6.35 |
| C31A C73A | -5.35 |
| U32A G45A A75U C88U U96C | -5.82 |
| U32G G57A C123U | -7.55 |
| A29U U112G | -0.993 |
| A29U U112A | -0.754 |
| U30C C56G C70U C79A C89U C98U C101A G110C | -6.87 |

| Variant | polymerase ribozyme fitness (log ratio) |
| --- | --- |
| A29U G52A | -1.8 |
| U30A G52U G60A | -4.07 |
| U30C G36C C70G U78C A84C U112G | -6.17 |
| A29U U81A C82A U87G U112A | -1.91 |
| C31U C123G | -2.99 |
| U32C G42C U54G C94A | -2.1 |
| U32A G45C U54A G61U | -3.78 |
| A29U G44U G45A | -4.25 |
| U32C A46U | -1.51 |
| A29U G127U | -3.66 |
| A29U G127C | -3.29 |
| U30C G63U C85U | -5.85 |
| U33A | -4.27 |
| U33C | -3.31 |
| U30G G69U U78G | -3.84 |
| C31G C56U G61A G69A U87G C123G | -7.19 |
| U30C C49U G63C G77A | -6.71 |
| U30A C88U | -5.1 |
| U32C C73U G117U | -2.41 |
| U30A U106A C124G | -2.11 |
| C31U U78A A90G | -3.97 |

| Variant | polymerase ribozyme fitness (log ratio) |
| --- | --- |
| A29U U112A U131A | -1.03 |
| U32G C56G | -6.87 |
| C31G G36U C49U U112G | -6.99 |
| U33A U116C | -6.14 |
| U30C A43U C56U G58U U112G | -6.19 |
| U30C G60A | -1.98 |
| U32A C88A C89A A119G | -4.6 |
| U32G G57C C76U C82G C85U C114G | -7.16 |
| A29U U78A | -1.8 |
| C31U A37G | -3.78 |
| C31G G58U G61A C62G A83U U109A C124U | -6.38 |
| C31G G69U A91G G120A U129A | -6.61 |
| U32C C86U C101U C114A | -4.6 |
| A29U G45U G120A G128U | -3.92 |
| U30C C70U G113C | -3.79 |
| U32C A37U U38A G48U U96G | -1.88 |
| U33A G57U | -4.65 |
| C31U U38C | -5.6 |
| U32G C49A G117A | -7.02 |
| U33A A37U U55C A100C | -6.04 |
| U32A G48C | -5.23 |

| Variant | polymerase ribozyme fitness (log ratio) |
| --- | --- |
| U30G C34G C40U C73U A91C C114U | -7.29 |
| A29U G77U | -1.77 |
| U33C A46G C88U A121U | -6.28 |
| A29U G45U C73U A95G U131A | -4.04 |
| U32C C98A U106A | -6.32 |
| A29U G58C G120C C124A | -1.02 |
| U32C G60C A75C C79G A118U G135U | -2.26 |
| U33A G63U | -6.72 |
| U30C C70U C82G | -6.42 |
| A29U U109C C124A | -3.97 |
| C31U U112A | -3.16 |
| U30G C70G C89A A111G | -7.35 |
| C31U C104U | -4.18 |
| U30G G69U G120A U126A U131G | -4.39 |
| U32A G58A C94A | -5.83 |
| U30G C79G U106A | -3.54 |
| U30C G58C C85G | -3.06 |
| U32C G36A C64A A111G | -5.64 |
| A29U G60C | -2.06 |
| A29U U87G A90C | -3.17 |
| U32A C88U | -3.8 |
